Laboratory results published in patent US20090136523A1 (published 2009).

Tests used:
peptide 125 (human) = assay: peptide microarray
peptide 16 (human) = assay: peptide microarray
peptide 69 (human) = assay: peptide microarray
peptide 121 (human) = assay: peptide microarray
peptide 13 (human) = assay: peptide microarray
[1] = target: T1, Purified recombinant human CD26 (rhDipeptidyl peptidase IV), R&D Systems CAT# 1180-SE (human, UniProt P27487 29-766); assay: SPR (Biacore), IgG1 over CD26
T1 construct: also called hu-CD26; soluble human CD26
T1 sequence (P27487 29-766 limits assumed): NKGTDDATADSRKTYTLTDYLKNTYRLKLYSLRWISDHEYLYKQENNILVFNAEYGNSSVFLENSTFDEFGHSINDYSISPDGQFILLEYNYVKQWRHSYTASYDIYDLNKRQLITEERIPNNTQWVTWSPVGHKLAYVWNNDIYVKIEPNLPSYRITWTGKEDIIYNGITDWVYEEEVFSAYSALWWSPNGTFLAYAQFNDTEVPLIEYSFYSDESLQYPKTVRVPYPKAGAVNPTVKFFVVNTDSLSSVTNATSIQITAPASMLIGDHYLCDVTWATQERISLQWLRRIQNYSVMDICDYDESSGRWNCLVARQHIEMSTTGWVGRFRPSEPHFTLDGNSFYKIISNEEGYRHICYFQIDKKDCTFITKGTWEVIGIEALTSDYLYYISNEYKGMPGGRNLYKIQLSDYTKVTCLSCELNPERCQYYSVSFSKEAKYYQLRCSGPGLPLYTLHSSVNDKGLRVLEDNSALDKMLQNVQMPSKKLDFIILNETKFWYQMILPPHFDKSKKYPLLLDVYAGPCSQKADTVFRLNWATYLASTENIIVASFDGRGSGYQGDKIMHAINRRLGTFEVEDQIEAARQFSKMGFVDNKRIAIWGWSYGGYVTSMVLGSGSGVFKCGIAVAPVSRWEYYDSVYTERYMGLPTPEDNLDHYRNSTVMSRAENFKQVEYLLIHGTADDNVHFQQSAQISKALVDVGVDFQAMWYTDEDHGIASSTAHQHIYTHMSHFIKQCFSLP
Experimental: Fabs produced in E. coli as described below were diluted in PBS in a concentration of ˜0.5 μM for the assay. A typical recording included a 3 minute period of injection of the Fab followed by a period of 15 minutes of dissociation, and analysis was performed based on the raw data of the binding curves accordingly.
Analyses thereof were performed using Biacore® as described in Example 1, excepting the binding partners were the rhuMAbs noted above.

Mean Signal Value (peptide 125 (human)): 1.8 | Mean Signal Value (peptide 16 (human)): 1.92 | Mean Signal Value (peptide 69 (human)): 2.45 | Mean Signal Value (peptide 121 (human)): 2.08 | Mean Signal Value (peptide 13 (human)): 1.94 | koff [1]: 0.000108 s⁻¹ | kon [1]: 485000 M⁻¹ s⁻¹
B1: rhuMAb 411 (antibody, human IgG1, kappa, V domains shown)
VH: EVQLVESGAGVKQPGGTLRLTCTASGFSLTTYGVHWVRQAPGKGLEWVGVIWGDGRTDYDAAFMSRVTISKDTSKSTVYLQMNSLRAEDTAVYYCMRNRHDWFDYWGQGTTVTVSS
VL: DILLTQSPSSLSATPGERATITCRASQGIRNNLNWYQQKPGQAPRLLIYYSSNLQSGVPSRFSGSGSGTDFTLTISRLQPEDVAAYYCQQSIKLPFTFGSGTKVEIKR
notes: also called X411
